Residue numbers refer to the chain shown, from its start.
Tests used:
[1] = target: T1, C-terminal V5 tagged mouse HS6ST2 (mHS6ST2_ctV5), expressed in CHO DG44 cells (mouse, UniProt Q80UW0 148-612); test: flow cytometry, antibody diluted 5-fold from 10 µg/mL in 6 steps
T1 construct: also called mHS6ST2_ctV5_CHO; mouse HS6ST2 transcript variant 2
T1 sequence: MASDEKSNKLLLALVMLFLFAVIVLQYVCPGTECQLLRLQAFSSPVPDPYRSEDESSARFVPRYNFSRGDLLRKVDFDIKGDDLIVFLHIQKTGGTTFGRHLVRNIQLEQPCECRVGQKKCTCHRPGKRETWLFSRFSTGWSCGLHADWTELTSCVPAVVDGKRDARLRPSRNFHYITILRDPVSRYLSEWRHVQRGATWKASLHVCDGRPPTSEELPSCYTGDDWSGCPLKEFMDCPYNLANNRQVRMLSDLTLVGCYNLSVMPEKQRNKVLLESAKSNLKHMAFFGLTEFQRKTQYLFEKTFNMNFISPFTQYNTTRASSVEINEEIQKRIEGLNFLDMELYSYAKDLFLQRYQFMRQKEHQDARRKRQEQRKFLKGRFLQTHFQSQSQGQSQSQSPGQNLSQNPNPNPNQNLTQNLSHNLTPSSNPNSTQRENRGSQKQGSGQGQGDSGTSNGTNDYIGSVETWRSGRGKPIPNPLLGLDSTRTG
Protocol: (§1) Binding of the anti-HS6ST2 antibodies prepared in Example 2 to mHS6ST2 was evaluated by flow cytometry. The cells used were mHS6ST2_ctV5_CHO, HS6ST2_N-short_ctV5_CHO as a positive control, and the CHO DG44 cell line as a negative control.
[…] After reaction on ice for 1 hour, the cells were washed with FACS buffer. Then, an FITC-labeled anti-mouse antibody (Goat F(ab′)₂ Fragment Anti-mouse IgG (H+L)-FITC, Beckman Coulter) was added as a secondary antibody, and the mixture was reacted on ice for 1 hour. The cells were washed with FACS buffer, and then suspended in FACS buffer containing 10 μg/mL propidium iodide (PI) (Sigma) and assayed by a flow cytometer (FACS Calibur, Becton Dickinson). The assay data were analyzed by CELLQuest software (Becton Dickinson), and the geo-mean of FITC fluorescent intensity was calculated for the PI-negative population of viable cells.
It was also shown that A6 and C8 equally bind to HS6ST2 and mHS6ST2.

[2] = target: T2, C-terminal V5 tagged HS6ST2_N-long (HS6ST2_N-long_ctV5), expressed in CHO DG44 cells (human, UniProt Q96MM7 1-605); test: flow cytometry on HS6ST2_N-long_ctV5_CHO cells
T2 construct: On cells in flow cytometry; also called Q96MM7-1
T2 sequence: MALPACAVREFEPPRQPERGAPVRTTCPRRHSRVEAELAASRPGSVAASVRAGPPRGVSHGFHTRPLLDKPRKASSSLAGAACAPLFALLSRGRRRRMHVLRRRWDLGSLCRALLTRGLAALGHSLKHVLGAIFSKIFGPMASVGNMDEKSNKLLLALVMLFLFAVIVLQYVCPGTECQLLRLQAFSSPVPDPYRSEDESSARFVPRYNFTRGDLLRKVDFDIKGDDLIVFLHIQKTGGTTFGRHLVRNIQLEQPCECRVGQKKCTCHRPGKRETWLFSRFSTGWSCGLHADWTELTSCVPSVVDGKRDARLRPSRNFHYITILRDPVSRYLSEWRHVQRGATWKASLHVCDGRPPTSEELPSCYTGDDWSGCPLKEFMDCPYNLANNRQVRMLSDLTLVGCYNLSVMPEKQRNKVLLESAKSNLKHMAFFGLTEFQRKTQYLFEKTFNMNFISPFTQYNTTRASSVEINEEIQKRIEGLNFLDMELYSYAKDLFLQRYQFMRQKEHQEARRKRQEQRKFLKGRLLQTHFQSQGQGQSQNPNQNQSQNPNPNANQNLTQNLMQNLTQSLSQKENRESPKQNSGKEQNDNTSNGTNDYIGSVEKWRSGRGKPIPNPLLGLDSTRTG
Protocol: (§2) Each anti-HS6ST2 antibody or mouse IgG1 (mIgG1, BD Biosciences Pharmingen) as a negative control was added to a final concentration of 2 μg/mL into 96-well U-bottom plates (Becton Dickinson) containing 5×10⁴ cells suspended in PBS (FACS buffer) supplemented with 0.5% bovine serum albumin and 0.1% NaN₃. After reaction on ice for 1 hour, the cells were washed with FACS buffer. Then, an FITC-labeled anti-mouse antibody (Goat F(ab′)₂ Fragment Anti-mouse IgG (H+L)-FITC, Beckman Coulter) was added as a secondary antibody, and the mixture was reacted on ice for 1 hour. The cells were washed with FACS buffer, and then suspended in FACS buffer containing 10 μg/mL propidium iodide (PI) (Sigma) and assayed by a flow cytometer (FACS Calibur, Becton Dickinson). The assay data were analyzed by CELLQuest software (Becton Dickinson), and the geo-mean of FITC fluorescent intensity was calculated for the PI-negative population of viable cells.
Binding activity of the anti-HS6ST2 antibodies prepared in Example 2 to HS6ST2_N-long was evaluated by flow cytometry. The cells used were HS6ST2_N-long_ctV5_CHO cells and HS6ST2_N-short_{—} ctV5_CHO cells as a positive control, and evaluated in the same manner as in Example 3. The primary antibodies were used at a concentration of 10 μg/mL.

[3] = target: T3, C-terminal V5 tagged HS6ST2_N-short (HS6ST2_N-short_ctV5), expressed in CHO DG44 cells (human, UniProt Q96MM7 147-605); test: flow cytometry on HS6ST2_N-short_ctV5_CHO cells, antibody 2 µg/mL
T3 construct: also called Q96MM7-2
T3 sequence: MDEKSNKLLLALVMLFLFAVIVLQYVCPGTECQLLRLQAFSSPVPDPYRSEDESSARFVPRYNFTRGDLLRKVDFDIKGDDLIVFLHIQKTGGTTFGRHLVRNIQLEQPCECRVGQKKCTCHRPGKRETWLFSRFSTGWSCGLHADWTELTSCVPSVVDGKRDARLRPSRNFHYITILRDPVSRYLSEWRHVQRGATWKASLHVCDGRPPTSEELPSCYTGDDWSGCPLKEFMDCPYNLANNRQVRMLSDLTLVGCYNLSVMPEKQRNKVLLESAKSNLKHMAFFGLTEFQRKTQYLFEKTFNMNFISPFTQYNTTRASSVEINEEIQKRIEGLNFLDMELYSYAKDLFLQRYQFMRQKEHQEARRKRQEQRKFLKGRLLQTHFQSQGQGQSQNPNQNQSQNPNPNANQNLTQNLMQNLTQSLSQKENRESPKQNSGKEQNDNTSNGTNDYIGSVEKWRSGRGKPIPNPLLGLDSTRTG
Protocol: as §1, §2

Measured: binding result

B1: anti-HS6ST2 antibody A6 (antibody, mouse IgG1, V domains shown)
VH: EVQLQQSGAELVRSGASVKLSCTASGFNIKDYYMHWVKQRPEQGLEWIGWIDPENDDTEYAPKFQGRATMTADTSSNTAYLQLSSLTSEDTAVYYCNAGYYGSGFAYWGQGTLVTVSA
VL: DIVMTQSPSSLTVTAGEKVTMRCKSSQSLLNSGNQKNYLTWYQQKPGQPPRLLIYWASIRESGVPDRFTGSGSGTDFTLTISSVQAEDLAVYYCQNDYSYPLTFGTGTKLELK
notes: also called clone A6
binds: all assays above

B2: anti-HS6ST2 antibody C8 (antibody, mouse IgG1, V domains shown)
VH: B1 VH with E54D, R67K, Y100N, Y101G, G102N, S103Y, G104W
VL: DVVMTQTPLSLPVSLGDQASISCRSSQSLVHSNGNTYLHWNLQKPGQSPKLLIYKVSNRFSGVPDRFSGSGSGTDFTLKISRVEAEDLGVYFCSQTTLVPYTFGGGTKLEIK
notes: also called clone C8; C8-biotin
binds: all assays above
